Measurements as given in publication PMC5087089.

Legend:
[1] = target: Y98F HA trimer from A/New Caledonia/20/1999 (H1 1999 NC), soluble trimeric format (influenza A virus A/New Caledonia/20/1999 (H1 1999 NC)); test: SEC; size exclusion on a Sepharose 10/300 column
[2] = target: wildtype (WT) HA trimer from A/New Caledonia/20/1999 (H1 1999 NC), soluble trimeric format (influenza A virus A/New Caledonia/20/1999 (H1 1999 NC)) (UniProt Q6WG00); test: SEC; size exclusion on a Sepharose 10/300 column

Substance	stoichiometry N [1]	stoichiometry N [2]
Y98F HA trimer from A/New Caledonia/20/1999 (H1 1999 NC), soluble trimeric format (natural protein)	3	–
wildtype (WT) HA trimer from A/New Caledonia/20/1999 (H1 1999 NC), soluble trimeric format (from UniProt Q6WG00 1-565) (natural protein)	–	3
